T1: recombinant DbpA full length protein (without signal sequence), Borrelia burgdorferi decorin-binding protein A (Borrelia burgdorferi, UniProt O50917 30-191)
T1 construct: also called DpbA; DbpA antigen
T1 sequence: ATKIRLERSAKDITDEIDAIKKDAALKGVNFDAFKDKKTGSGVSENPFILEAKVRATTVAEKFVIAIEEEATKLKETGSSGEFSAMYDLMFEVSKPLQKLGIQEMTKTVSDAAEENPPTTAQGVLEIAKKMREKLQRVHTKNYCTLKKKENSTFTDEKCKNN

B1: MAb 8C10 (mouse hybridoma monoclonal antibody) (antibody)
heavy: QVQLQQSGAELMKPGASVKLSCKAAGYTFTDYWIEWVKQRPGHGLEWIGEILPGSGSTKDNERFKGKATFTADTSSNTAYMQLSSLTTEDSAIYYCARREWGYYFDYWGQGTTLTVSSAKTTPPSVYPLAPGSAAQTNSMVTLGCLVKGYFPEPVTVTWNSGSLSSGVHTFPAVLQSDLYTLSSSVTVPSSTWPSQTVTCNVAHPASSTKVDKKIVPRDCGCKPCICTVPEVSSVFIFPPKPKDVLTITLTPKVTCVVVDISKDDPEVQFSWFVDDVEVHTAQTKPREEQINSTFRSVSELPIMHQDWLNGKEFKCRVNSAAFPAPIEKTISKTKGRPKAPQVYTIPPPKEQMAKDKVSLTCMITNFFPEDITVEWQWNGQPAENYKNTQPIMDTDGSYFVYSKLNVQKSNWEAGNTFTCSVLHEGLHNHHTEKSLSLSPGK
light: DIVMTQSHKFMSTSVGDRVSITCKASQDVSTAVAWYQQKPGQSPKLLIYWASTRHTGVPDRFTGSGSGTDYTLTISSVQAEDLALYYCQQHYSTPYTFGGGTKLEIKRADAAPTVSIFPPSSEQLTSGGASVVCFLNNFYPRDINVKWKIDGSERQNGVLNSWTDQDSKDSTYSMSSTLTLTKDEYERHNSYTCEATHKTSTSPIVKSFNRGEC
notes: Mouse IgG (gamma/kappa), tested as hybridoma culture supernatant; Signal peptides are positions 1-19 (heavy) and 1-20 (light); copies: 2 + 2
B2: MAb 6G8 (mouse hybridoma monoclonal antibody) (antibody)
heavy: QVQLQQPGAELVKPGASVKLSCKASGYTFTRYWMYWVKQRPGRGLEWIGRLDPNSGVTKYNEKFKSKATLTVDKSSSTAYMQLSSLTSEDSAVYYCVRDDSWYFDVWGTGTTVTVSSAKTTPPSVYPLAPGSAAQTNSMVTLGCLVKGYFPEPVTVTWNSGSLSSGVHTFPAVLQSDLYTLSSSVTVPSSTWPSQTVTCNVAHPASSTKVDKKIVPRDCGCKPCICTVPEVSSVFIFPPKPKDVLTITLTPKVTCVVVDISKDDPEVQFSWFVDDVEVHTAQTKPREEQINSTFRSVSELPIMHQDWLNGKEFKCRVNSAAFPAPIEKTISKTKGRPKAPQVYTIPPPKEQMAKDKVSLTCMITNFFPEDITVEWQWNGQPAENYKNTQPIMDTDGSYFVYSKLNVQKSNWEAGNTFTCSVLHEGLHNHHTEKSLSLSPGK
light: EIQMTQSPSSMSASLGDRITITCQATQDIVKNLNWYQQKPGKPPSFLIYYATELAEGVPSRFSGSGSGSDYSLTINNLESQDFADYFCLQFYAFPLTFGAGTKLELRRADAAPTVSIFPPSSEQLTSGGASVVCFLNNFYPRDINVKWKIDGSERQNGVLNSWTDQDSKDSTYSMSSTLTLTKDEYERHNSYTCEATHKTSTSPIVKSFNRGEC
notes: Mouse IgG1 kappa, tested as hybridoma culture supernatant; copies: 2 + 2
B3: 6G8 chimeric IgM (antibody)
heavy: QVQLQQPGAELVKPGASVKLSCKASGYTFTRYWMYWVKQRPGRGLEWIGRLDPNSGVTKYNEKFKSKATLTVDKSSSTAYMQLSSLTSEDSAVYYCVRDDSWYFDVWGTGTTVTVSSAKTTPPSVYPLAPGSAAQTNSMVTLGCLVKGYFPEPVTVTWNSGSLSSGVHTFPAVLQSDLYTLSSSVTVPSSTWPSQTVTCNVAHPASSTKVDKKILPVIAELPPKVSVFVPPRDGFFGNPRKSKLICQATGFSPRQIQVSWLREGKQVGSGVTTDQVQAEAKESGPTTYKVTSTLTIKESDWLSQSMFTCRVDHRGLTFQQNASSMCVPDQDTAIRVFAIPPSFASIFLTKSTKLTCLVTDLTTYDSVTISWTRQNGEAVKTHTNISESHPNATFSAVGEASICEDDWNSGERFTCTVTHTDLPSPLKQTISRPKGVALHRPDVYLLPPAREQLNLRESATITCLVTGFSPADVFVQWMQRGQPLSPEKYVTSAPMPEPQAPGRYFAHSILTVSEEEWNTGETYTCVVAHEALPNRVTERTVDKSTGKPTLYNVSLVMSDTAGTCY
light: B2 light
notes: Heavy chain is mouse VH-CH1 plus human IgM mu chain CH2-4; also called 6G8 chimera; 6G8 (26394.1.a)

Assays:
[1] = target: T1, recombinant DbpA full length protein …; assay: Octet BLI, mAb on anti-mIgG Fc sensor, DbpA 100 nM
[2] = target: T1, recombinant DbpA full length protein …; assay: Biacore SPR (summary table)
[3] = target: T1, recombinant DbpA full length protein …; assay: Biacore SPR, supernatant over DbpA chip
[4] = target: T1, recombinant DbpA full length protein …; assay: Octet BLI, DbpA 100 nM (summary table)
[5] = target: T1, recombinant DbpA full length protein …; assay: Biacore SPR, DbpA on CM5 chip

| Binder | Kd [1] [pM] | koff [1] [s⁻¹] | kon [1] [M⁻¹ s⁻¹] | Kd [2] [pM] | Kd [3] [pM] | koff [3] [s⁻¹] | kon [3] [M⁻¹ s⁻¹] | Kd [4] [pM] | koff [4] [s⁻¹] | kon [4] [M⁻¹ s⁻¹] | Kd [5] [pM] | koff [5] [s⁻¹] | kon [5] [M⁻¹ s⁻¹] |
| --- | --- | --- | --- | --- | --- | --- | --- | --- | --- | --- | --- | --- | --- |
| B1 | < 1 | < 1e-07 | 356000 | 1.2 | 1.2 | 1.3e-07 | 100000 | < 1 | < 1e-07 | 356000 |  |  |  |
| B2 | 976 | 0.000977 | 1e+06 | 0.25 | 0.25 | 5e-08 | 200000 | 976 | 0.000977 | 1e+06 |  |  |  |
| B3 |  |  |  |  |  |  |  |  |  |  | 1.96 | 2.45e-05 | 1.25e+07 |

Source: patent US20200062832A1 (QUIDEL, published 2020)
